Data on 2 molecules can be found in publication PMC10598736, “Structural insights into Rad18 targeting by the SLF1 BRCT domains” (The Journal of Biological Chemistry, 2023).

A word on the stoichiometry N: it is the number of molecules, sites or subunits per partner or assembly. As usually defined, the Kd is the free concentration of one partner at which half of the binding sites on the other are occupied at equilibrium, for simple one-to-one binding. Lower therefore signals higher affinity.

Assay [1] addresses SLF1 tandem BRCT repeat (SLF1^tBRCT), residues 1-199, wild type (UniProt Q9BQI6). The assay is described as follows: ITC; MicroCal ITC 200, 25 °C, 20 mM Tris (pH 7.5), 200 mM sodium chloride; 1.3 mM Rad18 peptide or 6 mM BRCTide injected into 0.1 mM (Rad18 peptides) or 0.2 mM (BRCTide) SLF1^tBRCT in the cell; three independent repeats. On the technique in general: Isothermal titration calorimetry measures the heat released or taken up as one component is titrated into another.

Another assay addresses T1, SLF1^tBRCT L142A (UniProt Q9BQI6 1-199, L142A).
T1 construct: SMC5/6 localization factor 1 (SLF1), tandem BRCT repeat, residues 1-199, with L142A; source: E. coli BL21 Rosetta (DE3), purified (same protocol as the wild type)
T1 sequence (looked up): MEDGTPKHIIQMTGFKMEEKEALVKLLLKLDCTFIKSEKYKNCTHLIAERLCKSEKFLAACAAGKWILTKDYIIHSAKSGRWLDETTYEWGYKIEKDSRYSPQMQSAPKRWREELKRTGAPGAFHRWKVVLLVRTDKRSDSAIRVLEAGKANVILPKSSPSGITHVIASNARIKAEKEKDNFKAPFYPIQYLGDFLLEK
The description is as above. The conditions noted are these: both partners purified.

The next assay concerns the target T2, SLF1^tBRCT K56A (UniProt Q9BQI6 1-199, K56A).
T2 construct: SMC5/6 localization factor 1 (SLF1), tandem BRCT repeat, residues 1-199, with K56A; also called K56A-substituted SLF1^tBRCT; source: E. coli BL21 Rosetta (DE3), purified (same protocol as the wild type)
T2 sequence (looked up): T1 sequence (looked up) with K56A, A142L
The description is as above. The conditions noted are these: both partners purified.

For a further assay, the target named is T3, SLF1^tBRCT I189A (UniProt Q9BQI6 1-199, I189A).
T3 construct: SMC5/6 localization factor 1 (SLF1), tandem BRCT repeat, residues 1-199, with I189A; source: E. coli BL21 Rosetta (DE3), purified (same protocol as the wild type)
T3 sequence (looked up): T1 sequence (looked up) with A142L, I189A
The assay is described as above. To be noted: both partners purified.

A further assay deals with T4, SLF1^tBRCT R50A (UniProt Q9BQI6 1-199, R50A).
T4 construct: SMC5/6 localization factor 1 (SLF1), tandem BRCT repeat, residues 1-199, with R50A; also called R50A-substituted SLF1^tBRCT; source: E. coli BL21 Rosetta (DE3), purified (same protocol as the wild type)
T4 sequence (looked up): T1 sequence (looked up) with R50A, A142L
The assay is described as above. The conditions noted are these: both partners purified.

For assay [2], the target named is T5, full-length Rad18 S442E, strep-his-sumo-tagged (human, UniProt Q9NS91 1-495, S442E).
T5 construct: Rad18, human, with the phosphomimetic S442E; also called S442E-substituted Rad18; source: E. coli BL21 Rosetta (DE3), purified (same protocol as the wild type); not shown: Strep, N-terminal, kept; His, N-terminal, kept; SUMO, N-terminal, kept
The assay can be described thus: pull-down; his-strep-sumo-tagged Rad18 (50 μg) held on streptactin beads, incubated with 50 μg SLF1^tBRCT at 4 °C for 60 min; 20 mM Tris (pH 7.5), 200 mM sodium chloride, 2 mM DTT; eluted with D-desthiobiotin, SDS PAGE. The conditions noted are these: both partners purified.

For assay [3], the target named is T6, full-length Rad18 S442E/S444E (2SE), strep-his-sumo-tagged (human, UniProt Q9NS91 1-495, S442E | S444E).
T6 construct: Rad18, human, with the phosphomimetics S442E/S444E; also called S442E/S444E (2SE)-substituted Rad18; source: E. coli BL21 Rosetta (DE3), purified (same protocol as the wild type); not shown: Strep, N-terminal, kept; His, N-terminal, kept; SUMO, N-terminal, kept
The description is as above. To be noted: both partners purified.

Substitutions are numbered along the chain they refer to. Square brackets hold non-standard residues; d marks the D form. Ends that are not written are not given here. pS = N[C@@H](COP(=O)(O)O)C(=O)O

T5 sequence (Q9NS91 whole entry S442E): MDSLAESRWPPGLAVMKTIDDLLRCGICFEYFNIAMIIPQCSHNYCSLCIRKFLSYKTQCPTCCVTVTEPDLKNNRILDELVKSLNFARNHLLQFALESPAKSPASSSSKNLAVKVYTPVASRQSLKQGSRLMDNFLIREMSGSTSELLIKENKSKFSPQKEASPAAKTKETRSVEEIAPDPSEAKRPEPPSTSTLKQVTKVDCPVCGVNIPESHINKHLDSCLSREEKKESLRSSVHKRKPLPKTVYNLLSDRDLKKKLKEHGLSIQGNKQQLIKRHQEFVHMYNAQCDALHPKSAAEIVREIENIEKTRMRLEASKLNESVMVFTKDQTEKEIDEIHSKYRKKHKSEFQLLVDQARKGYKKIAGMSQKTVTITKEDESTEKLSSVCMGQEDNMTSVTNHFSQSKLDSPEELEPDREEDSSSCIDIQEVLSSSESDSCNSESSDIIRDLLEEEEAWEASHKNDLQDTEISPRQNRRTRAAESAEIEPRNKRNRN
T6 sequence (Q9NS91 whole entry S442E/S444E): as the sequence (Q9NS91 whole entry S442E) above, with S444E counted along it

B1: Rad18 peptide containing phosphorylated Ser442 and Ser444 (Rad18-2P) (peptide, UniProt Q9NS91 436-452, looked up)
peptide: SDSCNS[pS]S[pS]DIIRDLLE
notes: Rad18, human, Ser442/Ser444-containing region, residues 436-452; also called dually phosphorylated Rad18 peptide; source: synthetic peptide
Take B1: the dH is -4.04 kcal/mol in assay [1]; -5.07 kcal/mol in the assay with SLF1^tBRCT L142A; -0.86 kcal/mol in the assay with SLF1^tBRCT K56A; -2.98 kcal/mol in the assay with SLF1^tBRCT I189A; -3.82 kcal/mol with SLF1^tBRCT R50A. Besides, the stoichiometry N in assay [1] was found to be 1.28; with SLF1^tBRCT L142A, 1.31; with SLF1^tBRCT K56A, 1.16; in the assay with SLF1^tBRCT I189A it was 1.21; with SLF1^tBRCT R50A, 1.45. The Kd in the assay with SLF1^tBRCT L142A amounted to 116 nM; in the assay with SLF1^tBRCT K56A, 2210 nM; in the assay with SLF1^tBRCT I189A it was 31 nM; in the assay with SLF1^tBRCT R50A, 160 nM.

B2: SLF1 tandem BRCT repeat (SLF1^tBRCT), residues 1-199, wild type (domain or fragment, UniProt Q9BQI6 1-199, looked up)
chain: T1 sequence (looked up) with A142L
notes: SMC5/6 localization factor 1 (SLF1), tandem BRCT repeat at the N-terminus, residues 1-199; coding region optimized for E. coli and synthesized; also called WT; SMC5/6 localization factor 1 tBRCT; source: E. coli BL21 Rosetta (DE3), purified (Ni-NTA, heparin, gel filtration)
In the case of B2, the binding result in assay [2] and in assay [3] was “binds” in each case.
